Test results from paper PMC12667214, “Phosphomimetic mutations near active sites of proteins in Thermus thermophilus suggest a widespread regulatory mechanism” (FEBS Open Bio, 2025).
Changes are numbered by the printed parent chain. In names and notes the source's numbering stands.

Columns and labels:
[1] = substrate: Nc1ncnc2c1ncn2[C@@H]1O[C@H](COP(=O)(O)OP(=O)(O)OP(=O)(O)O)[C@@H](O)[C@H]1O; experiment: pyruvate kinase/lactate dehydrogenase coupled assay, A340; format: biochemical, Thermus thermophilus; details: 1 mM CMP, 25 °C, pH 7.5, 5 mM MgCl2
Excerpt: (§1) pyruvate kinase/lactate dehydrogenase coupled assay, A340 on ttCMPK (CMP kinase)

purified protein [2] = substrate: O=c1ccn([C@@H]2O[C@H](COP(=O)(O)O)[C@@H](O)[C@H]2O)c(=O)[nH]1; experiment: purified protein; details: 1 mM ATP, 25 °C, pH 7.5, 5 mM MgCl2, 25.0 °C
[3] = substrate: Nc1ncnc2c1ncn2[C@@H]1O[C@H](COP(=O)(O)OP(=O)(O)OP(=O)(O)O)[C@@H](O)[C@H]1O; experiment: pyruvate kinase/lactate dehydrogenase coupled assay, A340; format: biochemical, Thermus thermophilus; details: excess UMP (methods print 1 mM CMP), 25 °C, pH 7.5, 5 mM MgCl2
A340 spectrophotometry [4] = substrate: NC(=O)c1ccc[n+]([C@@H]2O[C@H](COP(=O)(O)OP(=O)(O)OC[C@H]3O[C@@H](n4cnc5c(N)ncnc54)[C@H](OP(=O)(O)O)[C@@H]3O)[C@@H](O)[C@H]2O)c1; experiment: A340 spectrophotometry; format: biochemical, Thermus thermophilus; details: 2 mM isocitrate, 5 mM MgCl2, 100 mM KCl, 50 mM Tris-HCl pH 7.5, 60 °C
Excerpt: (§2) A340 spectrophotometry on ttIDH (isocitrate dehydrogenase)

A340 spectrophotometry [5] = substrate: O=C(O)C[C@H](C(=O)O)[C@@H](O)C(=O)O; experiment: A340 spectrophotometry; format: biochemical, Thermus thermophilus; details: 4 mM NADP+, 5 mM MgCl2, 100 mM KCl, 50 mM Tris-HCl pH 7.5, 60 °C
Excerpt: as §2

A340 spectrophotometry [6] = substrate: NC(=O)C1=CN([C@@H]2O[C@H](COP(=O)(O)OP(=O)(O)OC[C@H]3O[C@@H](n4cnc5c(N)ncnc54)[C@H](O)[C@@H]3O)[C@@H](O)[C@H]2O)C=CC1; experiment: A340 spectrophotometry; format: biochemical, Thermus thermophilus; details: 25 μM oxaloacetate, 5 mM MgCl2, 100 mM KCl, 50 mM Tris-HCl pH 7.5, 30 °C
Excerpt: A340 spectrophotometry on ttMDH (malate dehydrogenase)

purified protein [7] = substrate: O=C(O)CC(=O)C(=O)O; experiment: purified protein; details: 0.15 mM NADH, 5 mM MgCl2, 100 mM KCl, 50 mM Tris-HCl pH 7.5, 30 °C, 30.0 °C
[8] = substrate: O=P(O)(O)OP(=O)(O)O; experiment: phosphate release, BIOMOL Green, A650; format: biochemical, Thermus thermophilus; details: 2 mM MgCl2, 100 mM KCl, 50 mM Tris-HCl pH 7.5, 60 °C
Excerpt: phosphate release, BIOMOL Green, A650 on ttPPase (inorganic pyrophosphatase)

[9] = substrate: Nc1ncnc2c1ncn2[C@@H]1O[C@H](COP(=O)(O)O)[C@@H](O)[C@H]1O; experiment: pyruvate kinase/lactate dehydrogenase coupled assay, A340; format: biochemical, Thermus thermophilus; details: 1 mM ATP, 5 mM MgCl2, 100 mM KCl, 50 mM Tris-HCl pH 7.5, 25 °C
Excerpt: pyruvate kinase/lactate dehydrogenase coupled assay, A340 on ttAMPK (AMP kinase)

[10] = substrate: Nc1ccn([C@@H]2O[C@H](COP(=O)(O)O)[C@@H](O)[C@H]2O)c(=O)n1; experiment: as above; format: biochemical, Thermus thermophilus; details: 1 mM ATP, 25 °C, pH 7.5, 5 mM MgCl2
Excerpt: as §1

B1: ttCMPK (CMP kinase) (Thermus thermophilus HB8; S11E) (protein)
chain: MRGIVTIDGPEASGKSSVARRVAAALGVPYLSSGLLYRAAAFLALRAGVDPGDEEGLLALLEGLGVRLLAQAEGNRVLADGEDLTSFLHTPEVDRVVSAVARLPGVRAWVNRRLKEVPPPFVAEGRDMGTAVFPEAAHKFYLTASPEVRAWRRARERPQAYEEVLRDLLRRDERDKAQSAPAPDALVLDTGGMTLDEVVAWVLAHIRR
notes: recombinant in E. coli C41(DE3)pRARE2, pET-11a, no tag mentioned; monomer
[1]
  Km: 60 ± 14 µM
  kcat: 0.05 ± 0.01 s⁻¹

B2: ttUMPK (UMP kinase) (Thermus thermophilus HB8) (protein)
chain: MKYKRVLLKLSGEFLTRNGFGIEPEATQALAREIKAAYDTGVQLAIVIGAGNLWRGARQGVGMDRATADYIGMLATIMNALALQDALESLGVPTRVQTALTITQVAEPYIRRRALRHLEKERIVIFGGGTGNPFFSTDTAAALRALEVGAEVVLMAKNKVDGVYSDDPRKNPEAVRFDELTYLEVLNRGLQVMDTTAITLCMEAGLPIVVFDIFKPGALVGIIQGEKVGTLIH
notes: recombinant in E. coli C41(DE3)pRARE2, pET-11a, no tag mentioned; hexamer (prokaryotic UMP kinases)
Purified protein [2]
  Km: 74 ± 10 µM
  kcat: 21 ± 1 s⁻¹
[3]
  Km: 214 ± 7 µM
  kcat: 14 ± 0 s⁻¹

B3: ttUMPK (UMP kinase) (Thermus thermophilus HB8; S11A) (protein)
chain: B2 chain with S11A
notes: as for B2
[3]
  Km: 732 ± 206 µM
  kcat: 0.04 ± 0.02 s⁻¹

B4: ttIDH (isocitrate dehydrogenase) (Thermus thermophilus HB8) (protein)
chain: PLITTETGKKMHVLEDGRKLITVIPGDGIGPECVEATLKVLEAAKAPLAYEVREAGASVFRRGIASGVPQETIESIRKTRVVLKGPLETPVGYGEKSANVTLRKLFETYANVRPVREFPNVPTPYAGRGIDLVVVRENVEDLYAGIEHMQTPSVAQTLKLISWKGSEKIVRFAFELARAEGRKKVHCATKSNIMKLAEGTLKRAFEQVAQEYPDIEAVHIIVDNAAHQLVKRPEQFEVIVTTNMNGDILSDLTSGLIGGLGFAPSANIGNEVAIFEAVHGSAPKYAGKNVINPTAVLLSAVMMLRYLEEFATADLIENALLYTLEEGRVLTGDVVGYDRGAKTTEYTEAIIQNLGKTPRKTQVRGYKPFRLPQVDGAIAPIVPRSRRVVGVDVFVETNLLPEALGKALEDLAAGTPFRLKMISNRGTQVYPPTGGLTDLVDHYRCRFLYTGEGEAKDPEILDLVSRVASRFRWMHLEKLQEFDGEPGFTKAQGED
notes: recombinant in E. coli C41(DE3)pRARE2, pET-11a, no tag mentioned
A340 spectrophotometry [4]
  Km: 39 ± 1 µM
  kcat: 30 ± 2 s⁻¹
A340 spectrophotometry [5]
  Km: 34 ± 2 µM
  kcat: 26 ± 1 s⁻¹

B5: ttIDH (isocitrate dehydrogenase) (Thermus thermophilus HB8; S98E) (protein)
chain: B4 chain with S97E
notes: as for B4
A340 spectrophotometry [4]
  Km: 144 ± 21 µM
  kcat: 0.12 ± 0 s⁻¹
A340 spectrophotometry [5]
  Km: 178 ± 28 µM
  kcat: 0.19 ± 0.02 s⁻¹

B6: ttMDH (malate dehydrogenase) (Thermus thermophilus HB8) (protein)
chain: MKAPVRVAVTGAAGQIGYSLLFRIAAGEMLGKDQPVILQLLEIPQAMKALEGVVMELEDCAFPLLAGLEATDDPKVAFKDADYALLVGAAPRKAGMERRDLLQVNGKIFTEQGRALAEVAKKDVKVLVVGNPANTNALIAYKNAPGLNPRNFTAMTRLDHNRAKAQLAKKTGTGVDRIRRMTVWGNHSSTMFPDLFHAEVDGRPALELVDMEWYEKVFIPTVAQRGAAIIQARGASSAASAANAAIEHIRDWALGTPEGDWVSMAVPSQGEYGIPEGIVYSFPVTAKDGAYRVVEGLEINEFARKRMEITAQELLDEMEQVKALGLI
notes: as for B4
A340 spectrophotometry [6]
  Km: 2.7 ± 0.9 µM
  kcat: 126 ± 14 s⁻¹
Purified protein [7]
  Km: 8.6 ± 0.4 µM
  kcat: 203 ± 5 s⁻¹

B7: ttMDH (malate dehydrogenase) (Thermus thermophilus HB8; S236A) (protein)
chain: B6 chain with S236A
notes: as for B4
A340 spectrophotometry [6]
  Km: 7.6 ± 0.2 µM
  kcat: 468 ± 15 s⁻¹
Purified protein [7]
  Km: 52 ± 2 µM
  kcat: 622 ± 8 s⁻¹

B8: ttPPase (inorganic pyrophosphatase) (Thermus thermophilus HB8) (protein)
chain: ANLKSLPVGDKAPEVVHMVIEVPRGSGNKYEYDPDLGAIKLDRVLPGAQFYPGDYGFIPSTLAEDGDPLDGLVLSTYPLLPGVVVEVRVVGLLLMEDEKGGDAKVIGVVAEDQRLDHIQDIGDVPEGVKQEIQHFFETYKALEAKKGKWVKVTGWRDRKAALEEVRACIARYKG
notes: as for B4
[8]
  Km: 17 ± 2 µM
  kcat: 62 ± 11 s⁻¹

B9: ttPPase (inorganic pyrophosphatase) (Thermus thermophilus HB8; Y140F) (protein)
chain: B8 chain with Y139F
notes: as for B4
[8]
  Km: 53 ± 0 µM
  kcat: 19 ± 3 s⁻¹

B10: ttAMPK (AMP kinase) (Thermus thermophilus HB8) (protein)
chain: MDVGQAVIFLGPPGAGKGTQASRLAQELGFKKLSTGDILRDHVARGTPLGERVRPIMERGDLVPDDLILELIREELAERVIFDGFPRTLAQAEALDRLLSETGTRLLGVVLVEVPEEELVRRILRRAELEGRSDDNEETVRRRLEVYREKTEPLVGYYEARGVLKRVDGLGTPDEVYARIRAALGI
notes: recombinant in E. coli Rosetta2(DE3), pET-3a, no tag mentioned; monomer
[9]
  Km: 23 ± 1 µM
  kcat: 111 ± 3 s⁻¹

B11: ttAMPK (AMP kinase) (Thermus thermophilus HB8; S34A) (protein)
chain: B10 chain with S34A
notes: as for B10
[9]
  Km: 71 ± 2 µM
  kcat: 142 ± 4 s⁻¹

B12: ttAMPK (AMP kinase) (Thermus thermophilus HB8; S34E) (protein)
chain: B10 chain with S34E
notes: as for B10
[9]
  Km: 153 ± 1 µM
  kcat: 3.7 s⁻¹

B13: ttCMPK (CMP kinase) (Thermus thermophilus HB8) (protein)
chain: B1 chain with E11S
notes: as for B1
[10]
  Km: 61 ± 19 µM
  kcat: 54 ± 16 s⁻¹
[1]
  Km: 53 ± 1 µM
  kcat: 40 ± 1 s⁻¹

B14: ttCMPK (CMP kinase) (Thermus thermophilus HB8; S11A) (protein)
chain: B1 chain with E11A
notes: as for B1
[10]
  Km: 53 ± 3 µM
  kcat: 57 ± 8 s⁻¹
